Publication PMC2978023 (Journal of immunology (Baltimore, Md. : 1950), 2008)
Ends that are not written are not given here.

Legend:
Experiment in all cases: ELISA
[1] = biological target: recombinant purified β2 integrin subunit (UniProt P05107 23-769)
[2] = biological target: recombinant purified integrin αMβ2 (UniProt P11215 17-1152; P05107 23-769)
[3] = biological target: recombinant purified αM integrin subunit (UniProt P11215 17-1152)

| Kd [1] [nM] | Kd [2] [nM] | Kd [3] [nM] | Binder |
| --- | --- | --- | --- |
| > 100000 |  |  | GWTVFQKRLDGSV (also: biotin label, position not given here) [peptide P1, Fgγ(190)GWTVFQKRLDGSV(202)] |
| 50 | 12 | 100 | KIIPFNRLTIG (also: biotin label, position not given here) [peptide P2-C, Fgγ(385)KIIPFNRLTIG(395)] |
